Biological target: Nitrosopumilus maritimus 4-hydroxybutyryl-CoA dehydratase (Nitrosopumilus maritimus)
Experiment: crystal structure

With “Nitrosopumilus maritimus 4-hydroxybutyryl-CoA dehydratase (enzyme)” the stoichiometry N was 4.

From paper doi:10.1101/2020.02.05.935528
